Measured values: publication PMC10475850

Legend:
[1] = molecular target: Csp1 (cysteine-rich helical bundle copper-storage protein); experiment: SEC; analytical size exclusion of the purified protein (Figure S8); conditions not given
[2] = molecular target: Recombinant Human EGF (human); experiment: SPR; Biacore X100, multi-cycle kinetics; EGF amine-coupled to CM5 chip (100 μg/mL, acetate pH 4.0); binders injected at five concentrations (nanomolar range) 120 s, 180 s dissociation; PBS with 0.05% Tween-20, 25°C, 10 μL/min; global fit
[3] = molecular target: Recombinant Human EGF (human)
[4] = molecular target: Recombinant Human HB-EGF (human); experiment: SPR; Biacore X100, multi-cycle kinetics; HB-EGF amine-coupled to CM5 chip (20 μg/mL, acetate pH 5.0); binders injected at five concentrations (nanomolar range) 180 s, 180 s dissociation; PBS with 0.05% Tween-20, 25°C, 10 μL/min; global fit
[5] = molecular target: Recombinant Human TGF-alpha (human); experiment: SPR; Biacore X100, multi-cycle kinetics; TGF-α amine-coupled to CM5 chip (100 μg/mL, acetate pH 4.5); binders injected at five concentrations (nanomolar to low micromolar range) 60 s, 60 s dissociation; PBS with 0.05% Tween-20, 25°C, 10 μL/min; global fit

Row | stoichiometry N [1] | Kd [2] | koff [2] | kon [2] | IC50 of inhibition of proliferation of A431 cells stimulated with 400 pM EGF (EGF acting on EGFR), d3-WT at 0.032-500 nM, 72 h [3] | Kd [4] | koff [4] | kon [4] | Kd [5] | koff [5] | kon [5] | Substance
1 | 4 | – | – | – | – | – | – | – | – | – | – | Csp1 (cysteine-rich helical bundle copper-storage protein) (natural protein)
2 | – | 56 nM | 0.0028 s⁻¹ | 49700 M⁻¹ s⁻¹ | 476 nM | 370 nM | 0.0107 s⁻¹ | 47200 M⁻¹ s⁻¹ | 2550 nM | 0.0577 s⁻¹ | 38400 M⁻¹ s⁻¹ | human EGFR domain 3 (d3-WT) (domain or fragment)
